These results are taken from patent US20240400698A1, “ANTI-CHEMOKIN LIKE RECEPTOR 1 ANTIBODIES AND THEIR THERAPEUTIC APPLICATIONS” (OSE IMMUNOTHERAPEUTICS, priority 2018, published 2024).

The test system of assay [1] is IL-10KO mice, spontaneous colitis. Description: IL10-KO spontaneous chronic colitis model. Format: in vivo. The settings on record: 25 μg/injection i.p., 3 times a week, vs isotype control. The protocol: FIG. 4. […] Mice KO for IL10 develop a spontaneous inflammatory colitis. They were treated with an Anti-CMKLR1 antibody (2G1) ( ) or isotype control (hIgG1) (x) intra-peritoneally (25 μg/injection, 3 times a week). A. Animal weight loss during and after treatment. B. Animal score stool.
IL-10KO mice develop a spontaneous colitis from 20 weeks of age mostly due to the absence of regulatory T cells function through IL-10 secretion in the intestine. IL-10KO mice were followed-up three times a week from 18-week old for their weight loss and stool consistency which are clinical hallmarks of this pathology.

The next assay has as its system Hepa 1.6 cells. Put plainly: Orthotopic hepatocarcinoma (HCC) model, overall survival. Particulars: FIG. 22; Hepa 1.6 HCC model; anti-CMKLR1 0.8 mg/kg, anti-PD1 8 mg/kg; followed sixty days.

Procedure for Hepa 1.6 cells: Effect of an anti-CMKLR1 antibody on an Hepatocarcinoma mice model (HCC model). […] Isotype control antibody was used at 0.8 mg/kg three times a week for 2 weeks. Mice response were considered partial (PR) when mice survive few days to 1 month after stop of treatment or complete (CR) when mice survive over 1 month or cured when they survive three times longer than the time necessary to all control mice dye.
Method: Mice were anesthetized with a cocktail of xylazine/ketamine. After a laparotomy, tumoral Hepa 1.6 cells were injected in PBS through the portal vein (2.5·10^6 cells/100 μL) in PBS. The treatment was started 4 days after tumor injection. The anti-CMKLR1 antibody (2G1clone) and the hIgG1 istotype control were injected at 0.8 mg/kg three times per week during 2 weeks. The anti-PD1 monoclonal antibody was injected twice a week during 2 weeks intraperitoneally in PBS (8 mg/kg). Combination anti-CMKLR1 and anti-PD1 antibodies was tested as well (0.8 mg/kg and 8 mg/kg respectively).

B1: 2G1: chimeric anti-CMKLR1 antibody, murine variable regions (SEQ ID No: 10 and 17), human IgG1 constant regions; VH-CDR3 variant LI (antibody, V domains shown)
VH: METDTLLLWVLLLWVPGSTGDEVQLVASGGGLVQPGGSLKLSCAASGFTFSSYGMSWVRQTPDRRLELVATINRYGGSTYYPDSVKGRFTISRDNAKNTLYLQMSSLKSEDTAMYYCPRLIYYGNEGDSWGQGTTLTVSS
VL: METDTLLLWVLLLWVPGSTGDQIVLTQSPAIMSASPGEKVTMTCSASSSVSFMHWYQQKSGTSPKRWIYDTTKLTSGVPARFSGSGSGTFYSLTISSMEAEDAATYYCQQWNSKPPLTFGPGTKLELKR
modifications: human IgG1 constant regions
notes: VH-CDR3 variant LI
On to B1, for which, in assay [1] (FIG. 4A), the “percentage of weight loss” value is given as “lost less weight”. Besides, the score stool result in assay [1] (FIG. 4B) is listed as “better score stool”. In addition, the survival rate with Hepa 1.6 cells is on record as 15%.
